Measurements from US20260109758A1 (BIOSION, published 2026).

B1: BSI-502-001 (bispecific antibody, human IgG1, kappa)
heavy: EVQLVESGGGLVQPGGSLRLSCAASGFTFSTYGMSWVRQAPGKGLVWVATINSNGGSTSYPDSVKGRFTISRDNAKNTLYLQMNSLRAEDTAVYYCARFFRFRNAMDYWGQGTLVTVSSASTKGPSVFPLAPSSKSTSGGTAALGCLVKDYFPEPVTVSWNSGALTSGVHTFPAVLQSSGLYSLSSVVTVPSSSLGTQTYICNVNHKPSNTKVDKKVEPKSCDKTHTCPPCPAPEAQGGPSVFLFPPKPKDTLYITREPEVTCVVVDVSHEDPEVKFNWYVDGVEVHNAKTKPREEQYNSTYRVVSVLTVLHQDWLNGKEYKCQVSNKALPAPIEKTISKAKGQPREPQVYTLPPSRDELTKNQVSLTCLVKGFYPSDIAVEWESNGQPENNYKTTPPVLDSDGSFFLYSKLTVDKSRWQQGNVFSCSVMHEALHNHYTQKSLSLSPGKGGGGSGGGGSQVQLVQSGAEVKKPGASVKVSCKASGYTFTTYWMHWVRQAPGQGLEWMGVIDPSDSDTTYNQKFKGRVTMTRDTSTSTVYMELSSLRSEDTAVYYCTRSLDGYYDYWGQGTLVTVSSGGGGSGGGGSGGGGSGGGGSDIQMTQSPSSLSASVGDRVTITCRPTENIYSYLAWYQQKPGKAPKLLIYFARTLAEGVPSRFSGSGSGTDFTLTISSLQPEDFATYYCQHHYGTPWTFGGGTKVEIK
light: DIQMTQSPSSLSASVGDRVTITCRTSENIYSYLAWYQQKPGKAPKFLVYNAKTLAEGVPSRFSGSGSGTDFTLTISSLQPEDFATYYCQHYYGPPTWTFGQGTKVEIKRTVAAPSVFIFPPSDEQLKSGTASVVCLLNNFYPREAKVQWKVDNALQSGNSQESVTEQDSKDSTYSLSSTLTLSKADYEKHKVYACEVTHQGLSSPVTKSFNRGEC
notes: huC2C1A1A1-V15 IgG with an anti-TSLP scFv (hu1C5F12E9-V8, VH-VL) at the C-terminus of the heavy chain
B2: BSI-502-002 (bispecific antibody, human IgG1, kappa)
heavy: EVQLVESGGGLVQPGGSLRLSCAASGFTFSTYGMSWVRQAPGKGLVWVATINSNGGSTSYPDSVKGRFTISRDNAKNTLYLQMNSLRAEDTAVYYCARFFRFRNAMDYWGQGTLVTVSSASTKGPSVFPLAPSSKSTSGGTAALGCLVKDYFPEPVTVSWNSGALTSGVHTFPAVLQSSGLYSLSSVVTVPSSSLGTQTYICNVNHKPSNTKVDKKVEPKSCDKTHTCPPCPAPEAQGGPSVFLFPPKPKDTLYITREPEVTCVVVDVSHEDPEVKFNWYVDGVEVHNAKTKPREEQYNSTYRVVSVLTVLHQDWLNGKEYKCQVSNKALPAPIEKTISKAKGQPREPQVYTLPPSRDELTKNQVSLTCLVKGFYPSDIAVEWESNGQPENNYKTTPPVLDSDGSFFLYSKLTVDKSRWQQGNVFSCSVMHEALHNHYTQKSLSLSPGKGGGGSGGGGSDIQMTQSPSSLSASVGDRVTITCRPTENIYSYLAWYQQKPGKAPKLLIYFARTLAEGVPSRFSGSGSGTDFTLTISSLQPEDFATYYCQHHYGTPWTFGGGTKVEIKGGGGSGGGGSGGGGSGGGGSQVQLVQSGAEVKKPGASVKVSCKASGYTFTTYWMHWVRQAPGQGLEWMGVIDPSDSDTTYNQKFKGRVTMTRDTSTSTVYMELSSLRSEDTAVYYCTRSLDGYYDYWGQGTLVTVSS
light: B1 light
notes: huC2C1A1A1-V15 IgG with an anti-TSLP scFv (VL-VH) at the C-terminus of the heavy chain; AQQ and YTE already stand in the entry
B3: BSI-502-003 (bispecific antibody, human IgG1, kappa)
heavy: EVQLVESGGGLVQPGGSLRLSCAASGFTFSTYGMSWVRQAPGKGLVWVATINSNGGSTSYPDSVKGRFTISRDNAKNTLYLQMNSLRAEDTAVYYCARFFRFRNAMDYWGQGTLVTVSSGGGGSGGGGSGGGGSGGGGSDIQMTQSPSSLSASVGDRVTITCRTSENIYSYLAWYQQKPGKAPKFLVYNAKTLAEGVPSRFSGSGSGTDFTLTISSLQPEDFATYYCQHYYGPPTWTFGQGTKVEIKGGGGSGGGGSQVQLVQSGAEVKKPGASVKVSCKASGYTFTTYWMHWVRQAPGQGLEWMGVIDPSDSDTTYNQKFKGRVTMTRDTSTSTVYMELSSLRSEDTAVYYCTRSLDGYYDYWGQGTLVTVSSASTKGPSVFPLAPSSKSTSGGTAALGCLVKDYFPEPVTVSWNSGALTSGVHTFPAVLQSSGLYSLSSVVTVPSSSLGTQTYICNVNHKPSNTKVDKKVEPKSCDKTHTCPPCPAPEAQGGPSVFLFPPKPKDTLYITREPEVTCVVVDVSHEDPEVKFNWYVDGVEVHNAKTKPREEQYNSTYRVVSVLTVLHQDWLNGKEYKCQVSNKALPAPIEKTISKAKGQPREPQVYTLPPSRDELTKNQVSLTCLVKGFYPSDIAVEWESNGQPENNYKTTPPVLDSDGSFFLYSKLTVDKSRWQQGNVFSCSVMHEALHNHYTQKSLSLSPG
light: DIQMTQSPSSLSASVGDRVTITCRPTENIYSYLAWYQQKPGKAPKLLIYFARTLAEGVPSRFSGSGSGTDFTLTISSLQPEDFATYYCQHHYGTPWTFGGGTKVEIKRTVAAPSVFIFPPSDEQLKSGTASVVCLLNNFYPREAKVQWKVDNALQSGNSQESVTEQDSKDSTYSLSSTLTLSKADYEKHKVYACEVTHQGLSSPVTKSFNRGEC
notes: hu1C5F12E9-V8 IgG with an anti-IL4R scFv (huC2C1A1A1-V15, VH-VL) at the N-terminus of the heavy chain; AQQ and YTE already stand in the entry
B4: BSI-502-004 (bispecific antibody, human IgG1, kappa)
heavy: DIQMTQSPSSLSASVGDRVTITCRTSENIYSYLAWYQQKPGKAPKFLVYNAKTLAEGVPSRFSGSGSGTDFTLTISSLQPEDFATYYCQHYYGPPTWTFGQGTKVEIKGGGGSGGGGSGGGGSGGGGSEVQLVESGGGLVQPGGSLRLSCAASGFTFSTYGMSWVRQAPGKGLVWVATINSNGGSTSYPDSVKGRFTISRDNAKNTLYLQMNSLRAEDTAVYYCARFFRFRNAMDYWGQGTLVTVSSGGGGSGGGGSQVQLVQSGAEVKKPGASVKVSCKASGYTFTTYWMHWVRQAPGQGLEWMGVIDPSDSDTTYNQKFKGRVTMTRDTSTSTVYMELSSLRSEDTAVYYCTRSLDGYYDYWGQGTLVTVSSASTKGPSVFPLAPSSKSTSGGTAALGCLVKDYFPEPVTVSWNSGALTSGVHTFPAVLQSSGLYSLSSVVTVPSSSLGTQTYICNVNHKPSNTKVDKKVEPKSCDKTHTCPPCPAPEAQGGPSVFLFPPKPKDTLYITREPEVTCVVVDVSHEDPEVKFNWYVDGVEVHNAKTKPREEQYNSTYRVVSVLTVLHQDWLNGKEYKCQVSNKALPAPIEKTISKAKGQPREPQVYTLPPSRDELTKNQVSLTCLVKGFYPSDIAVEWESNGQPENNYKTTPPVLDSDGSFFLYSKLTVDKSRWQQGNVFSCSVMHEALHNHYTQKSLSLSPG
light: B3 light
notes: hu1C5F12E9-V8 IgG with an anti-IL4R scFv (VL-VH) at the N-terminus of the heavy chain; AQQ and YTE already stand in the entry

The binders below were run against human IL4Rα on HEK293T-IL4R/STAT6/STAT6-Luc LB2 cells (human, UniProt P24394 26-825) (assay: cell-based or functional assay).

**Q.** How did the “Inhibition on IL4 induced STAT6 phosphorylation (IC50, nM)” value turn out when B1 was run?
**A.** 0.00703 nM

**Q.** And the “Inhibition on IL13 induced STAT6 phosphorylation (IC50, nM)” value?
**A.** 0.0289 nM

**Q.** Which “Inhibition on IL4 induced STAT6 phosphorylation (IC50, nM)” value does the source give for B2 here?
**A.** 0.0129 nM

**Q.** And the “Inhibition on IL13 induced STAT6 phosphorylation (IC50, nM)” value?
**A.** 0.031 nM

**Q.** With B3 as the binder, how does the “Inhibition on IL4 induced STAT6 phosphorylation (IC50, nM)” value read?
**A.** 0.0221 nM

**Q.** What about the “Inhibition on IL13 induced STAT6 phosphorylation (IC50, nM)” value of the same binder?
**A.** 0.0306 nM

**Q.** With B4 as the binder, how does the “Inhibition on IL4 induced STAT6 phosphorylation (IC50, nM)” value read?
**A.** 0.0318 nM

**Q.** What about the “Inhibition on IL13 induced STAT6 phosphorylation (IC50, nM)” value of the same binder?
**A.** 0.0276 nM

What follows are binders tested against T1, recombinant human IL4Rα-his (human, UniProt P24394 26-231, limits assumed, biotin-labeled in the capture ELISA) (assay: capture ELISA: antibody captured on anti-human IgG Fc F(ab')2, biotin human IL4Rα-his, SA-HRP).
T1 construct: In-house made; not shown: His tag at the C-terminus
Experimental: Briefly, 96-well plates were coated with 2 μg/mL AffiniPure F(ab′)₂ Fragment Goat Anti-Human IgG, Fey fragment specific (Jackson Immuno Research, Cat #109-006-008) in PBS, 100 μL/well, overnight at 4° C. Plates were washed once with wash buffer (PBS+0.05% w/v Tween-20, PBST) and then blocked with 200 μL/well blocking buffer (5% w/v non-fatty milk in PBST) for 2 hours at 37° C. […] After a final wash, plates were incubated with 100 μL/well ELISA substrate TMB (Innoreagents, Cat #TMB-S-002). The reaction was stopped in 10 minutes at 25° C. with 50 μL/well 1M H₂SO₄, and the absorbance was read on a microplate reader using dual wavelength mode with 450 nm for TMB and 630 nm as the reference wavelength. Data was analyzed using Graphpad Prism and EC₅₀ values were reported.

**Q.** For B1, which EC50 is on record?
**A.** 0.0218 nM

**Q.** How did the EC50 turn out when B3 was run?
**A.** 0.0416 nM

**Q.** B4 was tested. Which EC50 did it give?
**A.** 0.0346 nM

These binders were tested against T2, human IL4Rα expressed on 293F-IL4Rα cell surface (human, UniProt P24394 26-825) (assay: flow cytometry on 293F-IL4Rα cells, PE anti-human IgG Fc).
T2 construct: whole, on cells; also called human IL4Rα-expressing cells; cell surface IL4R
Experimental: Cells were washed twice with FACS buffer, and added with 100 μL/well R-Phycoerythrin AffiniPure Goat Anti-Human IgG, Fey fragment specific (1:1000 dilution in FACS buffer, Jackson Immunoresearch, Cat #109-115-098). Following an incubation of 40 minutes at 4° C. in dark, cells were washed three times and resuspended in FACS buffer. Fluorescence was measured using a Becton Dickinson FACS Canto II-HTS equipment. Data was analyzed using Graphpad Prism and EC₅₀ values were reported.

**Q.** Which EC50 does the source give for B1 here?
**A.** 0.18 nM

**Q.** With B2 as the binder, how does the EC50 read?
**A.** 0.173 nM

**Q.** With B3 as the binder, how does the EC50 read?
**A.** 0.203 nM

**Q.** B4 was tested. Which EC50 did it give?
**A.** 0.169 nM

What follows are binders tested against T1, recombinant human IL4Rα-his (assay: competitive ELISA: coated human IL4Rα-his, antibody titrated; blocked ligand biotin human IL4).
Experimental: Briefly, 100 μL human IL4Rα-his proteins (prepared in-house, IL4Rα of SEQ ID NO: 33 with C-terminal His tag) were coated on 96-well micro plates at 2 μg/mL in PBS overnight at 4° C. The next day, plates were washed with wash buffer (PBS+0.05% w/v Tween-20, PBST), and blocked with 5% w/v non-fatty milk in PBST for 2 hours at 37° C. Plates were then washed again using wash buffer. Serially diluted bispecific antibodies or the controls (starting at 100 nM with a 5-fold serial dilution) in 2.5% w/v non-fatty milk in PBST, 100 μL per well, were added to the IL4Rα bound plates, and incubated at 37° C. for 40 minutes. […] Plates were washed again using wash buffer. Thereafter, the plates were added with 100 μL/well of streptavidin conjugated HRP (1:10000 dilution in PBST buffer, Jackson Immunoresearch, Cat #016-030-084) and incubated for 40 minutes at 37° C. Plates were washed again using wash buffer. Finally, TMB was added and the reaction was stopped using 1M H₂SO₄, and the absorbance was read at 450 nm. Data was analyzed using Graphpad Prism and IC₅₀ values were reported.

**Q.** With B1 as the binder, how does the IC50 read?
**A.** 0.248 nM

**Q.** B2 was tested. Which IC50 did it give?
**A.** 0.299 nM

**Q.** For B3, which IC50 is on record?
**A.** 0.229 nM

The binders below were run against T3, recombinant human TSLP-his (human, UniProt Q969D9 29-159, biotin-labeled in the ELISAs) (assay: competitive ELISA: antibody pre-mixed with biotin human TSLP-his; blocked binding to coated TSLPR-Fc/IL7Ra-Fc).
T3 construct: In-house made; not shown: His tag at the C-terminus
Experimental: Briefly, 100 μL human TSLPR-Fc proteins (SEQ ID NO: 34-SEQ ID NO: 38 fusion, prepared in-house) at 1 μg/mL in PBS, and 100 μL human IL7Ra-Fc proteins (SEQ ID NO: 35-SEQ ID NO: 38 fusion, prepared in-house) at 1 μg/mL in PBS were coated on 96-well micro plates overnight at 4° C. The next day, plates were washed with wash buffer (PBS+0.05% Tween-20, PBST), and blocked with 5% w/v non-fatty milk in PBST for 2 hours at 37° C. Plates were then washed again using wash buffer.
After incubation at 37° C. for 40 minutes, plates were washed 4 times using wash buffer. […] Plates were washed again using wash buffer. Finally, TMB was added and the reaction was stopped using 1M H₂SO₄. The absorbance was read on a microplate reader using dual wavelength mode with 450 nm for TMB and 630 nm as the reference wavelength, then the OD (450-630) values were plotted against the antibody concentration. Data was analyzed using Graphpad Prism and IC₅₀ values were reported.

**Q.** With B1 as the binder, how does the IC50 read?
**A.** 0.257 nM

**Q.** With B2 as the binder, how does the IC50 read?
**A.** 0.758 nM

**Q.** How did the IC50 turn out when B3 was run?
**A.** 0.134 nM

**Q.** How did the IC50 turn out when B4 was run?
**A.** 0.144 nM
